Measurements published in patent publication CN117425675A (XINSHI BIOPHARMACEUTICAL CO LTD, dated 2024).
Substitutions are numbered along the chain they refer to. Numbers in names are those of the source.

T1: human TNFR1 stably overexpressed on CHO-K1 cells (human (Homo sapiens), UniProt P19438 30-455)
T1 construct: also called 人TNFR1; TNFRSF1A
T1 sequence: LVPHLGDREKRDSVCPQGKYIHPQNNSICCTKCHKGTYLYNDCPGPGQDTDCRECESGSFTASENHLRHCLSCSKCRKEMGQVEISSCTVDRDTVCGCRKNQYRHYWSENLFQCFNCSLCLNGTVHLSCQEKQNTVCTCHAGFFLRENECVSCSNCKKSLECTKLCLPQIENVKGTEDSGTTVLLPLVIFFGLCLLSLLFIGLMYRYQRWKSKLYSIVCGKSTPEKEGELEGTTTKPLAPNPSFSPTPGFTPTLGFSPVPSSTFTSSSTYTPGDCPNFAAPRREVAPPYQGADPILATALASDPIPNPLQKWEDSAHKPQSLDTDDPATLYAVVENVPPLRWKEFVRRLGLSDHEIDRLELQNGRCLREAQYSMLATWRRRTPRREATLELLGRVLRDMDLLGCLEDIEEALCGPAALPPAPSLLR

T2: mouse TNFR2 stably overexpressed on HEK293T cells (mouse (Mus musculus), UniProt P25119 23-474)
T2 construct: also called 鼠TNFR2
T2 sequence: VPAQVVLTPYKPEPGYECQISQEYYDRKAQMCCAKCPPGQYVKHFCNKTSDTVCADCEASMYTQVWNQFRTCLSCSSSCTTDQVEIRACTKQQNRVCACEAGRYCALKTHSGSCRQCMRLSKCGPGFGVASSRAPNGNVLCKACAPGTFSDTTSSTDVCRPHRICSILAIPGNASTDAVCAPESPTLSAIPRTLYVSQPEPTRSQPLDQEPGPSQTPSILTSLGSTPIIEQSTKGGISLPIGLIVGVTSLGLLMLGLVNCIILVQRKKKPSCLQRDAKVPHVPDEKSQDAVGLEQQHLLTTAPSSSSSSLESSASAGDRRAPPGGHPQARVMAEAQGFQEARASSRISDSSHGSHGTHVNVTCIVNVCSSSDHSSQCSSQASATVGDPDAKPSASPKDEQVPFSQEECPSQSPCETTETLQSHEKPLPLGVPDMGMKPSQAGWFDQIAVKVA

T3: human TNFR2 expressed on cells (stably overexpressed on HEK293T, CHO-K1 or Jurkat cells; endogenous on THP1) (human (Homo sapiens), UniProt P20333 23-461)
T3 construct: also called 人TNFR2; hTNFR2
T3 sequence: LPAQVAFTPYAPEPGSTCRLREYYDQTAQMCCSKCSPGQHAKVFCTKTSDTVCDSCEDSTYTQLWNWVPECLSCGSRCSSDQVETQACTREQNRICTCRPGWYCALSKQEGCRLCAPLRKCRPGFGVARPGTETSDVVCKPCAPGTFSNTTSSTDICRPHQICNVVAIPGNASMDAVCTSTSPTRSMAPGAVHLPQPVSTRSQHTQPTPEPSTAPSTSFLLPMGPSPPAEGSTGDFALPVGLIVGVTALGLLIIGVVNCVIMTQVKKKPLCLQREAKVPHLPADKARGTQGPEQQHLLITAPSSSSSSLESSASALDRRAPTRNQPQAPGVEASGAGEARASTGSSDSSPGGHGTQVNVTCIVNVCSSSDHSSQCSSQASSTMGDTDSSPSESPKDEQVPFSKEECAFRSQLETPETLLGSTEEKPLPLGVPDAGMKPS

B1: R2_mAb-2 (antibody, V domains shown)
VH: QVQLVQSGPEVKKPGASVKVSCKASGYTFTNYGISWVRQAPGQGLEWMGWINAYNGNTNYAQKLQGRVTMTTDTSTSTAYMELRSLRSDDTAVYYCARDGGYGSGTYHNDYYYYYGMDVWGQGTTVTVSS
VL: EIVLTQSPDFQSMTPEEKVTITCRASQSIGSNLHWYQQKPDQSPKLLIKFASQSISGVPSRFSGSGSGTDFTLTINSLEAEDAATYYCHQSSSLPFTFGPGTKVDIK
notes: also called R2-2
B2: R2_mAb-4 (antibody, V domains shown)
VH: QVQLVQSGAEVRKPGASVKVSCKASGYTFTSYSVTWVRQAPGQGLEWMGWINAFSGNTHYAQNLQDRVTMTTDTSTSTAYMELRSLRSDDTAVYYCAREEGSGSYEDYYGMDVWGQGTTVTVSS
VL: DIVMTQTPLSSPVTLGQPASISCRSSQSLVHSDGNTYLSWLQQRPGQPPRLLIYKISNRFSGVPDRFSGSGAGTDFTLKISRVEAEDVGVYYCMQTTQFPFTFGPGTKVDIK
notes: The mouse IgG2a chimera was used only in the tumour models; also called R2-4
B3: R2_mAb-5 (antibody, V domains shown)
VH: QVQLVQSGAEVKKPGASVTVSCKASGYTFSTYGIIWVRQAPGQGLEWMGWISAFNGNANSAQKLQDRVTMTTDTSTSTAYMELRSLRSDDTAVYYCARGEDFFDYWGQGTLVTVSS
VL: DIVMTQTPLSSPVTLGQPASISCRSSQSLVHSDGNTYLSWLQQRPGQPPRLLIYKVSSRFSGVPDRFSGSGAGTDFTLKISRVEAEDVGVYYCTQSTQFPFTFGRGTKLEIK
notes: The mouse IgG2a, IgG1 and IgG1 D265A chimeras were used only in the tumour models; also called R2-5
B4: R2_mAb-6 (antibody, V domains shown)
VH: QVQLVQSGAEVKKPGASVKVSCKASGYTFLSYGLSWVRQAPGQGLEWMGWINAYNGNTNYAQNLQDRVTMTTDTSTSTAYMELRSLRSDDMAVYYCARWDILTAYYSSDAFDIWGQGTMVTVSS
VL: B3 VL with S39N, S58N, S96T, F101I, R105Q, K108R
notes: also called R2-6
B5: R2_mAb-3 (antibody, V domains shown)
VH: QVQLQESGPGLVKPSETLSLTCTVSGGSISSYYWSWIRQAPGKGLEWIGYIYYSGSTNYNPSLKSRVTISVDTSKNQFSLKLSSVTAADTAVYYCARDDGSSDYGMDVWGQGTTVTVSS
VL: AIQLTQSPSSLSASVGDRVTITCRASQGISSALAWYQQKPGKAPKLLIYDASSLESGVPSRFTGSGTDFTLTISSLQPEDFATYYCQQFNNYMYTFGQGTKLEIK
notes: also called R2-3
B6: R2_mAb-1 (antibody, V domains shown)
VH: QVQLVESGGGVVQPGRSLRLSCAASGFTFSSYGMHWVRQAPGKGLEWVAVIWFDEDNKDYADSVKGRFTISRDNSKNTLYLQMSSLRAEDTAVYYCARDNDILTGYYYYYGMDVWGQGTTVTVSS
VL: DIQLTQSPSFLSASVGDRVTITCRASQDISSYLAWYQQKPGKAPKLLIYAASTLQSGVPSRFSGSGSGTEFTLTISSLQPEDFATYYCQQLNSYPPTFGQGTKVEIK
notes: The VH/VL pair is read from parallel lists; also called R2-1

Target: T1, human TNFR1 stably overexpressed on …
Experiment: flow cytometry on CHO-K1 cells stably overexpressing human TNFR1

Row | binding result | Binder
1 | no binding (tested: 10μg/mL) | B1
2 | no binding (tested: 10μg/mL) | B2
3 | no binding (tested: 10μg/mL) | B3
4 | no binding (tested: 10μg/mL) | B4
5 | no binding (tested: 10μg/mL) | B5
6 | no binding (tested: 10μg/mL) | B6

Target: T2, mouse TNFR2 stably overexpressed on …
Experiment: flow cytometry on HEK293T cells stably overexpressing mouse TNFR2

Row | binding result | Binder
7 | no binding (tested: 10μg/mL) | B1
8 | no binding (tested: 10μg/mL) | B2
9 | no binding (tested: 10μg/mL) | B3
10 | no binding (tested: 10μg/mL) | B4
11 | no binding (tested: 10μg/mL) | B5
12 | no binding (tested: 10μg/mL) | B6

Target: T3, human TNFR2 expressed on cells (stably …)
Experiment: binding to cells stably overexpressing human TNFR2 (flow cytometry / imaging; text says HEK293T, table title says CHO-K1)

Row | EC50 | Binder
13 | 0.35 nM | B1
14 | 0.11 nM | B2
15 | 0.1 nM | B3
16 | 0.14 nM | B4
17 | 0.38 nM | B5
18 | 0.1 nM | B6
